B1: Flagellar biosynthesis protein FlhF (Bacillus subtilis), Q01960 (parent)
chain: MKIKKFTAASMQEAALLIRKELGNEAVILNSKKIKKRKWFGLVNKPAVEVIAVLDQDFLEKKTPQKAAEPKQTLKTPVSSPKIEERTYPPQIPAQQELGDFSAYQSVLPEPLRKAEKLLQETGIKESTKTNTLKKLLRFSVEAGGLTEENVVGKLQEILCDMLPSADKWQEPIHSKYIVLFGSTGAGKTTTLAKLAAISMLEKHKKIAFITTDTYRIAAVEQLKTYAELLQAPLEVCYTKEEFQQAKELFSEYDHVFVDTAGRNFKDPQYIDELKETIPFESSIQSFLVLSATAKYEDMKHIVKRFSSVPVNQYIFTKIDETTSLGSVFNILAESKIGVGFMTNGQNVPEDIQTVSPLGFVRMLCR
partner: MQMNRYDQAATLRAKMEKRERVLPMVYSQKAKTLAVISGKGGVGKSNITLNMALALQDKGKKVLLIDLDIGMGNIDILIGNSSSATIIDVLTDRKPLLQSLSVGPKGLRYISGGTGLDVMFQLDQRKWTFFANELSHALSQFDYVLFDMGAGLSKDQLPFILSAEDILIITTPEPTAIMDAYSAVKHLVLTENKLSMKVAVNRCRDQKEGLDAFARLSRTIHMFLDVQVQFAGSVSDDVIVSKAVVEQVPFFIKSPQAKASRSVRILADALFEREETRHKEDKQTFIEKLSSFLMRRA
B2: Flagellum site-determining protein YlxH (Bacillus subtilis), P40742 (parent)
chain: B1 partner
partner: B1 chain

Variants of: B1
Conditions: with ylxh_bacsu ylxH
In the case of R216A, the “effect of a mutation on the interaction” value is reported as “disrupting interaction”.

Variants of: B2
Conditions: with flhf_bacsu flhF
Q8A was tested, and the “effect of a mutation on the interaction” value was “disrupting interaction”.
